Assay [1] has as its target galectin-11 (LGALS-11) isoform 2 of sheep (Ovis aries) (sheep (Ovis aries)).
Assay [2] shares this target. Kind of assay: AUC; sedimentation velocity, c(s) analysis with SEDFIT; 0.10, 0.30 and 0.90 mg/ml; 20 mM Tris-HCl pH 8.0, 100 mM NaCl, 0.5 mM TCEP; 20 °C; absorbance at 280 nm.
The target in assay [3] is galectin-11 (LGALS-11) isoform 1 of sheep (Ovis aries) (sheep (Ovis aries)).
Assay [4] has the same target. Description: AUC; sedimentation velocity, c(s) analysis with SEDFIT; 0.10, 0.30 and 0.90 mg/ml; 20 mM Tris-HCl pH 8.0, 100 mM NaCl, 0.5 mM TCEP; 20 °C; absorbance at 280 nm.
Assay [5] addresses T1, LGALS-11 isoform 1 (galectin-11) (Ovis aries, UniProt A0A0A7EMW6).
T1 construct: gene LGALS15; recombinant, modified pET-28, E. coli BL21(DE3); alignment over 137 residues; homotetramer; natural variant with L9 and D124
T1 sequence (A0A0A7EMW6 1-137): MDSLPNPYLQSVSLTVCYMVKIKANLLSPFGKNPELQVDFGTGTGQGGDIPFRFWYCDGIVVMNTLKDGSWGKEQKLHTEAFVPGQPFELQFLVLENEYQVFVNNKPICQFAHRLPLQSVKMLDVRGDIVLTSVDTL
Description: X-ray crystallography. In kind it is binding. The conditions noted are these: 2.40 Å complex structure; carbohydrate recognition domain (R53, N64, E74 hydrogen bonds; V62, W71 contacts).

Where only a bound is given, the exact number is not on record here.

A word on the stoichiometry N: it is the number of molecules, sites or subunits per partner or assembly. As for “galectin-11 (LGALS-11) isoform 2 of sheep (Ovis aries) (natural protein)”, the L4s of H. contortus with internal or cuticular damage after 72 h with isoform 2 in assay [1] is less than 10%. This compound also gave a stoichiometry N in assay [2] of 2.

For the compound “galectin-11 (LGALS-11) isoform 1 of sheep (Ovis aries) (natural protein)”, in assay [3], the L4s of H. contortus with cuticular damage, shrunken soma and internal granules after 72 h with isoform 1 is more than 95%; the xL3s of H. contortus that did not develop to L4s when exposed to isoform 1 (1.0 mg/ml) was determined as 85%. The stoichiometry N in assay [4] stood at 4.

Regarding `OC[C@H]1O[C@@H](O)[C@H](O)[C@@H](O)[C@H]1O` [β-D-galactose], the X-ray crystallography result in assay [5] was “This galactose bound directly to the residues present in the four adjacent strands”.

These data come from publication PMC7442640, “The oligomeric assembly of galectin-11 is critical for anti-parasitic activity in sheep (Ovis aries)” (Communications Biology, 2020).
